Target: HLA-B*44:05 (Homo sapiens, UniProt P01889, A223V/A65T/A93T/A95T/D201E/D98Y/E176V/E187L/E204Q/E69K/G107R/H137Y/K202T/L105A/L119I/N104T/N87E/Q56L/Q94N/R106L/R155S/R180D/S101N/S121R/S35A/S48T/T118I/V36M/W191S/Y91S)
Assay: MHC binding assay (UV-ligand exchange, β2m ELISA, peptide exchange yield)
Details: binding to HLA-B*44:05
From the text: Candidate peptides for T cell-based therapies according to the present invention were further tested for their MHC binding capacity (affinity). The individual peptide-MHC complexes were produced by UV-ligand exchange, where a UV-sensitive peptide is cleaved upon UV-irradiation and exchanged with the peptide of interest as analyzed. Only peptide candidates that can effectively bind and stabilize the peptide-receptive MHC molecules prevent dissociation of the MHC complexes. To determine the yield of the exchange reaction, an ELISA was performed based on the detection of the light chain (β2m) of stabilized MHC complexes. The assay was performed as generally described in Rodenko et al. (Rodenko et al., 2006)
96 well MAXISorp plates (NUNC) were coated over night with 2 μg/ml streptavidin in PBS at room temperature, washed 4× and blocked for 1 h at 37° C. in 2% BSA containing blocking buffer. Refolded HLA-A*02:01/MLA-001 monomers served as standards, covering the range of 15-500 ng/ml. Peptide-MHC monomers of the UV-exchange reaction were diluted 100-fold in blocking buffer. Samples were incubated for 1h at 37° C., washed four times, incubated with 2 μg/ml HRP conjugated anti-β2m for 1h at 37° C., washed again and detected with TMB solution that is stopped with […]. Absorption was measured at 450 nm.

Row | Substance | Peptide exchange (MHC class I binding score, peptide exchange yield)
1 | 288 (TEHFLKKFF; listed as Homo sapiens) [compound 288] | +++ (>50 = +++)
2 | 455 (QESVHVASYYW; listed as Homo sapiens) [compound 455] | ++++ (>75% = ++++)
3 | 260 (VELMFPLLL; listed as Homo sapiens) [compound 260] | +++ (>50 = +++)
4 | 451 (REYEDGPLSL; listed as Homo sapiens) [compound 451] | +++ (>50 = +++)
5 | 197 (NEILTIHF; listed as Homo sapiens) [compound 197] | ++ (>20% = ++)
6 | 46 (SELGLPKEV; listed as Homo sapiens) [compound 46] | ++ (>20% = ++)
7 | 243 (VEQINISQDW; listed as Homo sapiens) [compound 243] | ++++ (>75% = ++++)
8 | 245 (MEFQGPMPAGM; listed as Homo sapiens) [compound 245] | +++ (>50 = +++)
9 | 159 (EEVQDGKVI; listed as Homo sapiens) [compound 159] | ++ (>20% = ++)
10 | 172 (RENPGMFSW; listed as Homo sapiens) [compound 172] | +++ (>50 = +++)
11 | 137 (EKGLISAF; listed as Homo sapiens) [compound 137] | ++ (>20% = ++)
12 | 393 (SETILAVGL; listed as Homo sapiens) [compound 393] | +++ (>50 = +++)
13 | 431 (QELLDFTNW; listed as Homo sapiens) [compound 431] | ++++ (>75% = ++++)
14 | 214 (SVNPIIYGF; listed as Homo sapiens) [compound 214] | ++ (>20% = ++)
15 | 353 (AETEEGIYW; listed as Homo sapiens) [compound 353] | ++++ (>75% = ++++)
16 | 318 (SESSSFLKV; listed as Homo sapiens) [compound 318] | +++ (>50 = +++)
17 | 132 (AESFTSGRHYW; listed as Homo sapiens) [compound 132] | ++++ (>75% = ++++)
18 | 247 (KESMLKTTL; listed as Homo sapiens) [compound 247] | +++ (>50 = +++)
19 | 106 (SVISDSPRSW; listed as Homo sapiens) [compound 106] | +++ (>50 = +++)
20 | 310 (FELECPVKY; listed as Homo sapiens) [compound 310] | +++ (>50 = +++)
21 | 114 (VEVNGVPRW; listed as Homo sapiens) [compound 114] | ++++ (>75% = ++++)

Row | Substance | Peptide exchange (MHC class I binding score, peptide exchange yield)
22 | 235 (SESLPRAPL; listed as Homo sapiens) [compound 235] | +++ (>50 = +++)
23 | 163 (AEDEDGKIVGY; listed as Homo sapiens) [compound 163] | ++ (>20% = ++)
24 | 304 (RELGFTEATGW; listed as Homo sapiens) [compound 304] | ++++ (>75% = ++++)
25 | 398 (AEIIRYIF; listed as Homo sapiens) [compound 398] | + (>10% = +)
26 | 155 (TEDARHPESW; listed as Homo sapiens) [compound 155] | ++++ (>75% = ++++)
27 | 279 (GEPVTQPGSLL; listed as Homo sapiens) [compound 279] | +++ (>50 = +++)
28 | 276 (SEYQDGKEF; listed as Homo sapiens) [compound 276] | ++ (>20% = ++)
29 | 435 (FETEQALRL; listed as Homo sapiens) [compound 435] | +++ (>50 = +++)
30 | 97 (ELVHMINW; listed as Homo sapiens) [compound 97] | ++ (>20% = ++)
31 | 342 (SENKKWVEF; listed as Homo sapiens) [compound 342] | ++ (>20% = ++)
32 | 254 (QEVAGYVLI; listed as Homo sapiens) [compound 254] | +++ (>50 = +++)
33 | 161 (GESSEVKAVL; listed as Homo sapiens) [compound 161] | +++ (>50 = +++)
34 | 153 (IEIILLSGSL; listed as Homo sapiens) [compound 153] | ++++ (>75% = ++++)
35 | 239 (DEDYTYLIL; listed as Homo sapiens) [compound 239] | ++ (>20% = ++)
36 | 410 (RELEEEFYSL; listed as Homo sapiens) [compound 410] | +++ (>50 = +++)
37 | 433 (AEEGPSVPKIY; listed as Homo sapiens) [compound 433] | +++ (>50 = +++)
38 | 356 (TEAVLNRY; listed as Homo sapiens) [compound 356] | ++ (>20% = ++)
39 | 447 (KEFGLDSVEL; listed as Homo sapiens) [compound 447] | +++ (>50 = +++)
40 | 92 (KEPSQSCIAQY; listed as Homo sapiens) [compound 92] | + (>10% = +)
41 | 188 (AEFVPKADLL; listed as Homo sapiens) [compound 188] | +++ (>50 = +++)
42 | 179 (EEHIFSAF; listed as Homo sapiens) [compound 179] | ++ (>20% = ++)

Row | Substance | Peptide exchange (MHC class I binding score, peptide exchange yield)
43 | 450 (REIENGNSF; listed as Homo sapiens) [compound 450] | +++ (>50 = +++)
44 | 404 (AEREQVIKL; listed as Homo sapiens) [compound 404] | ++++ (>75% = ++++)
45 | 261 (QEWDPQKTEKY; listed as Homo sapiens) [compound 261] | +++ (>50 = +++)
46 | 125 (LEVLHQGQW; listed as Homo sapiens) [compound 125] | +++ (>50 = +++)
47 | 405 (YEHAFNSIVW; listed as Homo sapiens) [compound 405] | ++++ (>75% = ++++)
48 | 127 (RYFDENIQKFIW; listed as Homo sapiens) [compound 127] | +++ (>50 = +++)
49 | 428 (AEEKAAVTSL; listed as Homo sapiens) [compound 428] | +++ (>50 = +++)
50 | 76 (RLNEHPSNNW; listed as Homo sapiens) [compound 76] | ++ (>20% = ++)
51 | 372 (EEYKFPSLF; listed as Homo sapiens) [compound 372] | +++ (>50 = +++)
52 | 389 (DEQRRQNVAY; listed as Homo sapiens) [compound 389] | ++ (>20% = ++)
53 | 21 (SEAKEIKSQL; listed as Homo sapiens) [compound 21] | +++ (>50 = +++)
54 | 332 (SEADWLRFW; listed as Homo sapiens) [compound 332] | ++++ (>75% = ++++)
55 | 124 (NENLDYAIL; listed as Homo sapiens) [compound 124] | ++++ (>75% = ++++)
56 | 387 (GEVQENYKL; listed as Homo sapiens) [compound 387] | +++ (>50 = +++)
57 | 386 (EESDYITHY; listed as Homo sapiens) [compound 386] | +++ (>50 = +++)
58 | 319 (YEWEPFAEV; listed as Homo sapiens) [compound 319] | + (>10% = +)
59 | 351 (EEGRVYVY; listed as Homo sapiens) [compound 351] | ++ (>20% = ++)
60 | 225 (VEAATVSKW; listed as Homo sapiens) [compound 225] | +++ (>50 = +++)
61 | 394 (SEILRVTLY; listed as Homo sapiens) [compound 394] | +++ (>50 = +++)
62 | 419 (SELSLLSLY; listed as Homo sapiens) [compound 419] | +++ (>50 = +++)
63 | 74 (AELEGALQKA; listed as Homo sapiens) [compound 74] | ++ (>20% = ++)

From patent publication US12065471B2, “B*44 restricted peptides for use in immunotherapy against cancers and related methods” (Immatics Biotechnologies GmbH, priority 2018, dated 2024)
